Results from PMC2712734 (Nature structural & molecular biology, 2009).
Where a chain is given by its changes, count along the chain named.

T1: GST-CHMP3 V48D, A64D (human, UniProt Q9Y3E7 1-222, V48D | A64D)
T1 sequence (looked up): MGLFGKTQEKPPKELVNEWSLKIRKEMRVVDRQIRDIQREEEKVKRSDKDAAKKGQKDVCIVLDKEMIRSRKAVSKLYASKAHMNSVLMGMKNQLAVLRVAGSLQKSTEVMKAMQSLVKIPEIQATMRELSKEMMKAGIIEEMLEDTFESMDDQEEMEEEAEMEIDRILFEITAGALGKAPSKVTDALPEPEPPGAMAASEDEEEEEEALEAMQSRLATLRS

T2: GST-CHMP3, wild type (human, UniProt Q9Y3E7 1-222)
T2 sequence (looked up): T1 sequence (looked up) with D48V, D64A

T3: GST-CHMP3 I168D, L169D (human, UniProt Q9Y3E7 1-222, I168D | L169D)
T3 sequence (looked up): T1 sequence (looked up) with D48V, D64A, I168D, L169D

T4: CHMP3 V48D, A64D (human, UniProt Q9Y3E7 1-222, V48D | A64D)
T4 sequence (looked up): T1 sequence (looked up)

T5: CHMP3 I168D, L169D (human, UniProt Q9Y3E7 1-222, I168D | L169D)
T5 sequence (looked up): T1 sequence (looked up) with D48V, D64A, I168D, L169D

B1: CHMP2A, full length, pure recombinant (natural protein, human, UniProt O43633 1-222, looked up)
chain: MDLLFGRRKTPEELLRQNQRALNRAMRELDRERQKLETQEKKIIADIKKMAKQGQMDAVRIMAKDLVRTRRYVRKFVLMRANIQAVSLKIQTLKSNNSMAQAMKGVTKAMGTMNRQLKLPQIQKIMMEFERQAEIMDMKEEMMNDAIDDAMGDEEDEEESDAVVSQVLDELGLSLTDELSNLPSTGGSLSVAAGGKKAEAAASALADADADLEERLKNLRRD
B2: GST-IST1NTD, wild type (domain or fragment, human, UniProt P53990 1-189, looked up)
chain: MLGSGFKAERLRVNLRLVINRLKLLEKKKTELAQKARKEIADYLAAGKDERARIRVEHIIREDYLVEAMEILELYCDLLLARFGLIQSMKELDSGLAESVSTLIWAAPRLQSEVAELKIVADQLCAKYSKEYGKLCRTNQIGTVNDRLMHKLSVEAPPKILVERYLIEIAKNYNVPYEPDSVVMAEAPP
B3: IST1NTD (N-terminal domain of IST1, residues 1-189) (domain or fragment, human, UniProt P53990 1-189, looked up)
chain: B2 chain
B4: CHMP1B, pure recombinant (natural protein, human, UniProt Q7LBR1 1-199, looked up)
chain: MSNMEKHLFNLKFAAKELSRSAKKCDKEEKAEKAKIKKAIQKGNMEVARIHAENAIRQKNQAVNFLRMSARVDAVAARVQTAVTMGKVTKSMAGVVKSMDATLKTMNLEKISALMDKFEHQFETLDVQTQQMEDTMSSTTTLTTPQNQVDMLLQEMADEAGLDLNMELPQGQTGSVGTSVASAEQDELSQRLARLRDQV
B5: GST-CHMP3_(1-150) (domain or fragment, human, UniProt Q9Y3E7 1-150, looked up)
chain: MGLFGKTQEKPPKELVNEWSLKIRKEMRVVDRQIRDIQREEEKVKRSVKDAAKKGQKDVCIVLAKEMIRSRKAVSKLYASKAHMNSVLMGMKNQLAVLRVAGSLQKSTEVMKAMQSLVKIPEIQATMRELSKEMMKAGIIEEMLEDTFES
B6: CHMP3_(1-150) (domain or fragment, human, UniProt Q9Y3E7 1-150, looked up)
chain: B5 chain

What was measured:
GST-CHMP3 V48D, A64D = molecular target: T1, GST-CHMP3 V48D, A64D; experiment: pull-down
GST-CHMP3, wild type = molecular target: T2, GST-CHMP3, wild type; experiment: pull-down
GST-CHMP3 I168D, L169D = molecular target: T3, GST-CHMP3 I168D, L169D; experiment: pull-down
CHMP3 V48D, A64D = molecular target: T4, CHMP3 V48D, A64D; experiment: negative-stain transmission electron microscopy
CHMP3 I168D, L169D = molecular target: T5, CHMP3 I168D, L169D; experiment: negative-stain transmission electron microscopy
CHMP1B, pure recombinant = molecular target: B4; experiment: SPR
[1] = molecular target: the molecule itself; experiment: light scattering at 330 nm + negative-stain transmission electron microscopy
GST-IST1NTD Y165A = GST-IST1NTD Y165A (human, UniProt P53990 1-189, Y165A); experiment: SPR
GST-IST1NTD E168R = GST-IST1NTD E168R (human, UniProt P53990 1-189, E168R); experiment: SPR
GST-IST1NTD Y64D = GST-IST1NTD Y64D (human, UniProt P53990 1-189, Y64D); experiment: SPR
GST-IST1NTD E67A = GST-IST1NTD E67A (human, UniProt P53990 1-189, E67A); experiment: SPR
[2] = molecular target: the molecule itself; experiment: negative-stain transmission electron microscopy
[3] = molecular target: B1; experiment: pull-down
[4] = molecular target: B1; experiment: negative-stain transmission electron microscopy

Binder: B1
binding result (GST-CHMP3 V48D, A64D): binds | binding result (GST-CHMP3, wild type): binds | binding result (GST-CHMP3 I168D, L169D): binds | binding result (CHMP3 V48D, A64D): binds | binding result (CHMP3 I168D, L169D): binds

Binder: B2
Kd (CHMP1B, pure recombinant): 22 µM

Binder: B3
binding result [1]: binds

Binder: B4
fold reduction of binding affinity against wild type IST1NTD (GST-IST1NTD Y165A): > 8 fold | fold reduction of binding affinity against wild type IST1NTD (GST-IST1NTD E168R): > 8 fold | fold reduction of binding affinity against wild type IST1NTD (GST-IST1NTD Y64D): > 8 fold | fold reduction of binding affinity against wild type IST1NTD (GST-IST1NTD E67A): 6 fold | binding result [2]: binds

Binder: B5
binding result [3]: binds

Binder: B6
binding result [4]: binds
